± gives the standard deviation of the averaged measurements.
Test system: Saccharomyces cerevisiae
Experiment: protein stability index of tFT-peptide fusion (C-terminal peptide) (PSI (0-1 scale)); higher = more stable (slower turnover)
Details: genetic background: wild type; temperature: 30 C
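Further: PSI is a weighted mean of sequencing reads over stability bins, variants kept only with over 10 reads, mCherry proximal and sfGFP distal, peptide attached via GGGS linker.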

In order of falling protein stability index:
1. LYSPSLRPPLLL  0.855 ± 0.18
2. LSLLPPLCFPSH  0.8215 ± 0.0043
3. LYSRSSRLFRPL  0.804 ± 0.042
4. MGGRDNLVQKEW  0.804 ± 0.091
5. LVPSPLIFPSLG  0.783 ± 0.012
6. LSPFGTLLNAPP  0.782 ± 0.075
7. LSSTGFDLWSLL  0.769 ± 0.067
8. LSSSVIFALPLP  0.767 ± 0.034
9. LTPSVRDKRPPI  0.759 ± 0.055
10. LSKASNTLVDSD  0.755 ± 0.058
11. LVIGTTLSSLML  0.742 ± 0.066
12. MPGSLPVSRVLL  0.74 ± 0.087
13. LWISDSGSLYFS  0.739 ± 0.018
14. LYSGLASEIWYT  0.737 ± 0.045
15. MLPPRRAPFPPP  0.735 ± 0.018
16. LSSGSCLESPFT  0.732 ± 0.08
17. LVVPNFPLSFSV  0.732 ± 0.055
18. LVSLVGVGWGCG  0.729 ± 0.023
19. MKNKSTEKNRKF  0.72815 ± 0.00016
20. LWGGAGAGYWVG  0.727 ± 0.033
21. LSRHSRSILPSL  0.726 ± 0.056
22. LSPPPLSPPSHP  0.723 ± 0.0092
23. LSSNSTTSATYR  0.722 ± 0.016
24. LSPAAPTHAYAA  0.72 ± 0.1
25. LTFWLGSLGLWG  0.72 ± 0.019
26. LWSDPGQILVEL  0.717 ± 0.015
27. LSIGGDLLFLRE  0.716 ± 0.067
28. LSSCPPPALRLP  0.715 ± 0.013
29. LYTNLIGFNSWI  0.713 ± 0.037
30. LVEEGKKLTSKF  0.711 ± 0.078
31. LSQFQEPPFYLF  0.708 ± 0.044
32. LVRCPLGVPGAS  0.7085 ± 0.0065
33. LYSTATLSLCSR  0.707 ± 0.12
34. LWENVVLVEGGK  0.704 ± 0.069
35. LYRRGTYFEGLI  0.704 ± 0.012
36. MGGDATSLKRLV  0.703 ± 0.0091
37. LWLDKSREGSLG  0.701 ± 0.021
38. LWRRPASSLLPI  0.701 ± 0.018
39. LVAAEARIGFAV  0.7 ± 0.012
40. LTPEPPRPPTPY  0.699 ± 0.033
41. LSLGSSATLTFQ  0.698 ± 0.03
42. MPENGSTKSWWK  0.696 ± 0.082
43. LSQISTQRPNQV  0.694 ± 0.06
44. MDKIKKNYSQIG  0.693 ± 0.036
45. LVEARQGAFLVV  0.692 ± 0.029
46. LTRFQPTPCLPP  0.691 ± 0.0074
47. LVGRVGAVAGPA  0.691 ± 0.028
48. LWGVGWPLLGGL  0.691 ± 0.04
49. LTVVGGVVGKVG  0.689 ± 0.037
50. LVVGNQFIRRSD  0.685 ± 0.023
51. LWLSAPDRREPF  0.684 ± 0.041
52. MESGKILGCCGI  0.684 ± 0.012
53. MIKAPGHKGTIN  0.684 ± 0.02
54. LYQEPLRNACFC  0.683 ± 0.1
55. LVLRLLRGFLPK  0.681 ± 0.014
56. LTPTLLTNPQAD  0.678 ± 0.022
57. MLGRLLDRCYDY  0.678 ± 0.029
58. MEGNQTSVRGRT  0.677 ± 0.083
59. MGYNSRHLDISM  0.677 ± 0.018
60. LSSARPLAGVHT  0.675 ± 0.03
61. LWGEGAGPEDVG  0.674 ± 0.011
62. MPCPFSSASRAI  0.668 ± 0.036
63. LYVTYVPYTYAT  0.665 ± 0.012
64. LSLFMAAREVFP  0.664 ± 0.018
65. LTIEFSARLGNA  0.663 ± 0.03
66. LVHGWERPSRVR  0.661 ± 0.021
67. LYPGYIVVANYK  0.661 ± 0.032
68. LVNVIPSHERAT  0.656 ± 0.037
69. LSLTCLSSPPPA  0.654 ± 0.034
70. MLHLNPVLHISG  0.653 ± 0.041
71. LSSLYSSLTFFL  0.651 ± 0.014
72. LTCRGESYAGLI  0.651 ± 0.014
73. LVLLFGIGTTHW  0.65 ± 0.049
74. LVLDVLDLRRHC  0.649 ± 0.012
75. LTLPLFPPPCSV  0.648 ± 0.018
76. LTHLPSLCVRRI  0.647 ± 0.06
77. LTHTVLVGSALN  0.647 ± 0.024
78. LVLLDQISVPLI  0.6474 ± 0.00096
79. LSPLPPPAGHLP  0.646 ± 0.096
80. LSPGQVLPWGVL  0.643 ± 0.069
81. MLLLWRVPQCGE  0.638 ± 0.055
82. LSTAWFYFSLLF  0.635 ± 0.072
83. MLYENNTAPLFI  0.635 ± 0.045
84. MEAAGVGRVVWR  0.632 ± 0.056
85. LVGALISHSILR  0.629 ± 0.019
86. MKPPRGRIVITG  0.626 ± 0.02
87. MITRPASKYLVK  0.6221 ± 0.0052
88. LSRWGKTKGKKW  0.62 ± 0.014
89. LWKLLNTVKNAA  0.62 ± 0.01
90. LYPNPPLLPCSP  0.612 ± 0.046
91. LSLVDFSTLWFF  0.611 ± 0.08
92. LVSGFRYPFSCL  0.611 ± 0.037
93. LVWFQYFRLWGG  0.61 ± 0.029
94. LVCLLFTNKVMH  0.599 ± 0.011
95. MALAVRVVGCGA  0.594 ± 0.014
96. LSIFFCRCFSSF  0.59 ± 0.021
97. MIVSILRSRSFS  0.557 ± 0.0066
98. MLMFSASAVWGG  0.556 ± 0.048
99. LVVSLGLFLLRH  0.549 ± 0.045
100. LSRSTSYILIII  0.515 ± 0.039
101. LSPALSFVLTIW  0.497 ± 0.011

From the supplement of paper PMC10724198
